Source: US20220389394A1 (Gilead, published 2022)

T1: human FLT3 on the AML5 cell line (human, UniProt P36888 27-993)
T1 sequence (looked up): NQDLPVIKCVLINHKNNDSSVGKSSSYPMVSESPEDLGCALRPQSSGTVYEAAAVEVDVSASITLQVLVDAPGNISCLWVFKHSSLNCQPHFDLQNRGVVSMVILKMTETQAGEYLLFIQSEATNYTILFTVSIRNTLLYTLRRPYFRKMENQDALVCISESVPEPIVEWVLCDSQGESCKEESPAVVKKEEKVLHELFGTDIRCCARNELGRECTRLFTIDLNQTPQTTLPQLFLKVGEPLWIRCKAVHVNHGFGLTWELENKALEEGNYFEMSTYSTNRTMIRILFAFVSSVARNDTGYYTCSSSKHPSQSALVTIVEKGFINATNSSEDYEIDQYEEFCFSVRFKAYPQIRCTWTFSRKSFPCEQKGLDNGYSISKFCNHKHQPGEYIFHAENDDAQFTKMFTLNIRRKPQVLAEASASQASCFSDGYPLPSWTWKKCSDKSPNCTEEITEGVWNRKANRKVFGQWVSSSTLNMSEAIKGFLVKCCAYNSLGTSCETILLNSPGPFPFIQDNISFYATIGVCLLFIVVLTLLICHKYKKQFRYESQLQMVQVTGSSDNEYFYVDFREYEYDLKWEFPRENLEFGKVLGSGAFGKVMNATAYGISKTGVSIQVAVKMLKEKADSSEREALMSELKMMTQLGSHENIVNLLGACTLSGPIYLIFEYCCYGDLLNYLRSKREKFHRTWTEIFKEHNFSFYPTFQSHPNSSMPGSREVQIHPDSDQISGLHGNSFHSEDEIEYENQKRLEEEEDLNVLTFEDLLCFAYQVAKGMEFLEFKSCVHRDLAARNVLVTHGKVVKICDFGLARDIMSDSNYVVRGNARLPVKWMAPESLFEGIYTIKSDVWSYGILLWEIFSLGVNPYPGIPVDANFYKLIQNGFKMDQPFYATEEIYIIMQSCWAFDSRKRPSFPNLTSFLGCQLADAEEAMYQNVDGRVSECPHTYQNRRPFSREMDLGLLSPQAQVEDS

T2: his-tagged recombinant human Flt3 receptor (Sino Biologicals) (human, UniProt P36888 27-541, limits assumed)
T2 construct: Bought protein; also called human recombinant FLT3; not shown: His tag
T2 sequence (looked up): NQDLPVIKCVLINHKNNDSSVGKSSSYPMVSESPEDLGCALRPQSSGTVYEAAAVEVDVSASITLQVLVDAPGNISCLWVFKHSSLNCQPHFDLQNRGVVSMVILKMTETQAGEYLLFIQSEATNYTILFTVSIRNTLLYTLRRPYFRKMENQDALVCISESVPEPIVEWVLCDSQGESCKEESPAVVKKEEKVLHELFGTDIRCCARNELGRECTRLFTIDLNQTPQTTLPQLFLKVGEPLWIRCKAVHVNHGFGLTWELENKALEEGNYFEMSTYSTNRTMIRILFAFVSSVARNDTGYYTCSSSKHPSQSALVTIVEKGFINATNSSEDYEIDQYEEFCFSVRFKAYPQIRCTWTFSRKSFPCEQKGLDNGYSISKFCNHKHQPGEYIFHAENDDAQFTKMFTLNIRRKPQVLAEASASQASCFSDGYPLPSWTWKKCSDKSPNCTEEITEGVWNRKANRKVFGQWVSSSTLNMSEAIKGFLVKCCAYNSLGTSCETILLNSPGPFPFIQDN


How the values were obtained:
recombinant human FcRn [1] = molecular target: T3, recombinant human FcRn (human, UniProt P55899 24-297; P61769 21-119, limits assumed); assay: ELISA; recombinant human FcRn coated, serially diluted test article, anti-human (H+L)-HRP, 4PL fit
T3 construct: a beta-2-microglobulin chain is not mentioned; also called human recombinant FcRn
Procedure: (§1) Graph is a result of one experiment. Experiment was performed in duplicate. Error bars represent standard deviation of the mean values.
Signal was developed using TMB substrate then quenched prior to reading absorbance at 450-650 nm on a SpectraMax plate reader.

[2] = molecular target: T1, human FLT3 on the AML5 cell line; assay: cell-based or functional assay
[3] = molecular target: T2, his-tagged recombinant human Flt3 …; assay: ELISA; His-tagged recombinant human Flt3 on nickel plate, serially diluted Flt3L-Fc, anti-human (H+L)-HRP, 4PL fit
Procedure: as §1
Signal was developed using TMB substrate then quenched prior to reading absorbance at 450 nm on a SpectraMax plate reader.

recombinant human FcRn [4] = molecular target: T3, recombinant human FcRn; assay: FcRn ELISA
[5] = molecular target: T4, recombinant human C1q protein (Fitzgerald) (human, UniProt P02745 23-245; P02746 28-253; P02747 29-245, limits assumed); assay: ELISA, test article immobilized, C1q added; text: devoid of C1q binding ability
T4 construct: also called human recombinant complement protein, C1q
T4 sequence (P02745 23-245 limits assumed, chain 1 of 3): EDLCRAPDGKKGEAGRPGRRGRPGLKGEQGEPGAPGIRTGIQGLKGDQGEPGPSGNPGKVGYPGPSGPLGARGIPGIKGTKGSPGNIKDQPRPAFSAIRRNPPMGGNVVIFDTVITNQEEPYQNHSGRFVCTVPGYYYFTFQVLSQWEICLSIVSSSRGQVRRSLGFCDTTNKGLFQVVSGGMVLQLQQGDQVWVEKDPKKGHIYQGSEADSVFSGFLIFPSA
T4 sequence (P02746 28-253 limits assumed, chain 2 of 3): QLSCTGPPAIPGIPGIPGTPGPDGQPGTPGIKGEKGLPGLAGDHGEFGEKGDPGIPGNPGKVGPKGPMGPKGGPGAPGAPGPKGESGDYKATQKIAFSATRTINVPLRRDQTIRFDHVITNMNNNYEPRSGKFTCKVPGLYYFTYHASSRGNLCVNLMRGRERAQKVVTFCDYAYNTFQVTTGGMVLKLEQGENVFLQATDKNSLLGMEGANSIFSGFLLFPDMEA
T4 sequence (P02747 29-245 limits assumed, chain 3 of 3): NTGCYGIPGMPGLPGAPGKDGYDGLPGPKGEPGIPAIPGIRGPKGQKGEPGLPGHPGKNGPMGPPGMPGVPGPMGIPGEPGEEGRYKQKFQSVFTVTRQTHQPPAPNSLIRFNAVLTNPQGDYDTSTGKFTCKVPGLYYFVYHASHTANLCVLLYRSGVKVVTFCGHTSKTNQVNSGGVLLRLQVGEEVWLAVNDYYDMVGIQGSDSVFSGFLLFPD

T3 sequence (P55899 24-297 limits assumed, chain 1 of 2): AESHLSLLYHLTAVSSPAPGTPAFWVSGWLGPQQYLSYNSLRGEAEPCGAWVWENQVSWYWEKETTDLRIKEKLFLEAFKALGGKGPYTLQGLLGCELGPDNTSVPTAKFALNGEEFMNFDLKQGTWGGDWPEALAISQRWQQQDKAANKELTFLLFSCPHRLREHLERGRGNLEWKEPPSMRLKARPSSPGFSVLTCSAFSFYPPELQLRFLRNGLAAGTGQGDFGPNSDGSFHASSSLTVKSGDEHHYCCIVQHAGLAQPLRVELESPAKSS
T3 sequence (P61769 21-119 limits assumed, chain 2 of 2): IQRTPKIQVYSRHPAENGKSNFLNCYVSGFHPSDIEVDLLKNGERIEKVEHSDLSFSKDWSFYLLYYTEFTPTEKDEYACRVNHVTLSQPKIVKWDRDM

Binder | EC50 (recombinant human FcRn [1]) [nM] | EC50 (nM), AML5 proliferation [2] [nM] | EC50 [3] [nM] | fold increase in FcRn binding against SEQ ID NO:1 (recombinant human FcRn [4]) [fold] | binding result [5] | fold increase in FcRn binding against SEQ ID NO:6 (recombinant human FcRn [4]) [fold]
human FLT3-ligand human hingeless IgG1 (M252Y/S254T/T256E) fusion protein (SEQ ID NO:9) (Fc fusion, also called FLT3L ECD-hingeless hG1 (M252Y/S254T/T256E)) TQDCSFQHSPISSDFAVKIRELSDYLLQDYPVTVASNLQDEELCGGLWRLVLAQRWMERLKTVAGSKMQGLLERVNTEIHFVTKCAFQPPPSCLRFVQTNISRLLQETSEQLVALKPWITRQNFSRCLELQCQPDSSTLPPPWSPRPLEATAPTAPQGGPSVFLFPPKPKDTLYITREPEVTCVVVDVSHEDPEVKFNWYVDGVEVHNAKTKPREEQYNSTYRVVSVLTVLHQDWLNGKEYKCKVSNKALPAPIEKTISKAKGQPREPQVYTLPPSREEMTKNQVSLTCLVKGFYPSDIAVEWESNGQPENNYKTTPPVLDSDGSFFLYSKLTVDKSRWQQGNVFSCSVMHEALHNHYTQKSLSLSPGK | 61 | 0.037 | 0.88 | 38 | no binding (tested: 94 nM (highest of the titration)) | –
human FLT3-ligand (Δ5 amino acid) human IgG4 (S228P/F234A/L235A/M252Y/S254T/T256E) fusion protein (SEQ ID NO:14) (Fc fusion, also called FLT3L ECD (Δ C-term 5aa (PTAPQ)) - hG4 (S228P/F234A/L235A/M252Y/S254T/T256E)) TQDCSFQHSPISSDFAVKIRELSDYLLQDYPVTVASNLQDEELCGGLWRLVLAQRWMERLKTVAGSKMQGLLERVNTEIHFVTKCAFQPPPSCLRFVQTNISRLLQETSEQLVALKPWITRQNFSRCLELQCQPDSSTLPPPWSPRPLEATAESKYGPPCPPCPAPEAAGGPSVFLFPPKPKDTLYITREPEVTCVVVDVSQEDPEVQFNWYVDGVEVHNAKTKPREEQFNSTYRVVSVLTVLHQDWLNGKEYKCKVSNKGLPSSIEKTISKAKGQPREPQVYTLPPSQEEMTKNQVSLTCLVKGFYPSDIAVEWESNGQPENNYKTTPPVLDSDGSFFLYSRLTVDKSRWQEGNVFSCSVMHEALHNHYTQKSLSLSLGK | 178 | 0.046 | 0.92 | – | no binding (tested: 94 nM (highest of the titration)) | 2
